Assay: soluble on expression in E. coli; label from the status in PepcDB or PDB records

Row | Sequence | soluble on expression in E. coli
1 | AAASFGQTKIPRGNGPYSVGCTDLMFDHTNKGTFLRLYYPSQDNDRLDTLWIPNKEYFWGLSKFLGTHWLMGNILRLLFGSMTTPANWNSPLRPGEKYPLVVFSHGLGAFRTLYSAIGIDLASHGFIVAAVEHRDRSASATYYFKDQSAAEIGDKSWLYLRTLKQEEETHIRNEQVRQRAKECSQALSLILDIDHGKPVKNALDLKFDMEQLKDSIDREKIAVIGHSFGGATVIQTLSEDQRFRCGIALDAWMFPLGDEVYSRIPQPLFFINSEYFQYPANIIKMKKCYSPDKERKMITIRGSVHQNFADFTFATGKIIGHMLKLKGDIDSNVAIDLSNKASLAFLQKHLGLHKDFDQWDCLIEGDDENLIPGTNINTTNQHI | soluble
2 | AALAEIVAQLNIYQSQVELIQQQMEAVRATISELEILEKTLSDIQGKDGSETLVPVGAGSFIKAELKDTSEVIMSVGAGVAIKKNFEDAMESIKSQKNELESTLQKMGENLRAITDIMMKLSPQAEELLAAVA | soluble
3 | AARQMEALNRGLVAVKTDGGIFVSWRFLGTENASVLFNVYRDGQKLNAAPVKTTNYVDKNGSAGSTYTVRAVVNGTEQPASEKASVWAQPYHSVPLDKPAGGTTPKGESYTYSANDASVGDVDGDGQYELILKWDPSNSKDNSQDGYTGDVLIDAYKLDGTKLWRINLGKNIRAGAHYTQFMVYDLDGDGKAEVAMKTADGTKDGTGKVIGNANADYRNEQGRVLSGPEYLTVFQGSTGKELVTANFEPARGNVSDWGDSYGNRVDRFLAGIAYLDGQRPSLIMTRGYYAKTMLVAYNFRDGKLSKLWTLDSSKSGNEAFAGQGNHNLSIADVDGDGKDEIIFGSMAVDHDGKGMYSTGLGHGDALHTGDLDPGRPGLEVFQVHEDKNAKYGLSFRDAATGKILWGVYAGKDVGRGMAADIDPRYPGQEVWANGSLYSAKGVKIGSGVPSSTNFGIWWDGDLLREQLDSNRIDKWDYQNGVSKNMLTASGAAANNGTKATPTLQADLLGDWREEVVWRTEDSSALRIYTTTIPTEHRLYTLMHDPVYRLGIAWQNIAYNQPPHTSFFLGDGMAEQPKPNMYTPLEHHHHHH | soluble
4 | ACRISPGQINQVRPKLPLLKILHAAGAQGEMFTVKEVMHYLGQYIMVKQLYDQQEQHMVYCGGDLLGELLGRQSFSVKDPSPLYDMLRKNLVTLATATTDA | soluble
5 | ADPLAATTVADLPVYNGEDVWQRVAQRCRLVDGQGVNERIARQRDWLLNNRGFLTGASKRATPYLHFIVERLDERNMPLELALLPMIESSYNPLANSPAAAAGLWQFIPSTGRQFNLNQSATYDARRDVVASSKAAMDYLTRLHDQFNNDWLLALAAYNAGEGTVARAIDANRRRGMPVDYWHLNLPRETQDYVPRLLALSLVVRNPGAYGVQLTPVANMPYFDVVELNHTVDLTQLAATTGVDEAQLLRLNPAFLRKKTPDGPGRLLIPKTHTQVLTAGIERITGESPTTAVIPASPGKRVIEREPSSQVAERAPTPEPLQAAGREQTAGLMQVLEREPAPESVQPVRREPQPKVVQVARQEPLPGPAQPVQAAEQVTVSDPIQPARQASSQATNERSLLDRRIQKRLYIDDRSSPRKRDEIAYRDEPRELPNGPRVVVYASDPRQ | not soluble
6 | ADPVMLEIFNNRFMSVAEQMGYTLQNTAHSVNIKERLDFSCAIFDGKGNLIANAPHIPVHLGSMGECVKYLIRARSVEMTAGDVYLINSPYHGGTHLPDLTVVTPMSGNLGEILFYLASRGHHADVGGVTPGSMPPDSRTIEEEGVLSEGMKIVEQGRFLEEKLRLWLGSGKYPARNPDQNVADIRAQVAANEKGLQELHRMVEEFSLETVEAYMGHVQDNAEEAVRRVIDRLEDGEFTYPLDDGNAIKVKVKIDRENRNAKIDFSGTSSQLPSNFNAPASVCLAAVLYAFRTLVKSDIPLNAGCLRPLEIIIPEGSMLKPEPPASVVAGNVETSQYIVDAIFGALGSLAASQGTMNNFTFGNADFQYYETICGGSGAGPGFSGTDAVHTHMTNSRITDPEVLETRFPVLLEEFSIRQGSGGEGEFRGGNGVVRKFRFLKDMDAAILSSHRKFPPFGLKGGMPGKCGKNTLIRRDGSVIEAGGKAELKLKSEDVFVIETPGGGGYGRPENFRPEK | not soluble
7 | AEEPTGVFLKKPDSVSVETGKDAVVVAKVNGKELPDKPTIKWFKGKWLELGSKSGARFSFKESHNSASNVYTVELHIGKVVLGDRGYYRLEVKAKDTCDSCGFNIDVEAPR | soluble
8 | AELTCTDVSGLTAEEIQMRESLQYTDHSPYPDKTCANCQLYVPAESPDQCGGCQLIKGPIHPNGYCTSWVQKAT | soluble
9 | AEQDMYLLRQSFDKYKTVSAGVPWFSALFGRDSLITASQTLMLNPEIAKETLMLLAAYQGKHEDEWREEAPGKILHELRLGEMARCQEIPHTPYYGTVDATPLWLMLYSEYYSWTHDRETLEQLWPHALAAMDWIDRNMQPSGYLTYHRKSKRGLDNQGWKDSGDCIVDRKGDLANGSIALSEVQAYVYAAKTRLAEIARMKKRLDLFERWQEEARSLKERFNQDFWIEDQDFCALALDGAGKQVDSITSNPGHCLLLGIFTPERAYSVAERLRAPDMFNGWGIRTLSSLSPAYNPMGYHIGSVWPHDNSLIAMGLRSLGLIDQALEIFQGLLDMTSQQPYQRPPELFCGYERNGDRSPVQYPVACTPQAWATGSIFQ | not soluble
10 | AESGFRQHITANGESGFKAEPDRYHLYLSYACPWACRTLIMRKLKGLEKIISVSFSDPVMGKNGWSYGESGNETADHINHIHYLKELYLVARKDYTGRVTVPVLWDKKKKTIVNNESSEIMRMLNSEFNAFSSTDHDYYPKQWRQKIDEINQLVYENINN | not soluble
11 | AESLSGLSLKLVKKEPRQLELTWAGSRPRNPGGNLSYELHVLNQDEEWHQMVLEPRVLLTKLQPDTTYIVRVRTLTPLGPGPFSPDHEFRTSPP | soluble
12 | AFYYLSNFERALAWLAERYDDVLDAGEHAFVGAFGALPRASRALLVRMLMRKGPMFRASKLAYDEIGCPLAAAAPLVALGWIDPEPPLSLDALFALATKPELRDAFPDAPASGAVRKADWLDALRARHDGERPWAQWLPSIDDRVLRVTAAVDALCSRLRLMFFGNLHQDWSEFVLADLGLLQYETVAFAPSSRAFQRRDDVDAYLRLHACRELLEVWPADAPLAPLVEAAAAVDCGNAWLAMRRAKLTFSIGQACERRADWDGALAAYASSAWPGSRQRRVRVLERCERFDTALALADEAARAPENEAEAQQIARMLPRLRRRVGLPAGRAARAREIPRDSLELAHPGVPYPVEYVARDHLSRADAPVFYVENALINSLFGLLCWEPVFAAVPGAFFHPFQRGPADLHAPDFRARRAAQFDACLAQLDGTQYRDTIRRHYARKRGVQSPFVFWGALDETLLEHALACLPAEHLRLWFERLLDDVRGNRSGLPDLVRFWPAERRYELIEVKGPGDRLQDNQIRWLDYCVRHRMPVRVIDVRWSGDAQASSQDEGAL | not soluble
13 | AGVNDDMPLKECYRTMWLNIWNLAGSNLNAISNRVQYDSLPCTTRNKTWELERKMFAQVDRLFNQGKEEGVFKPLDNEVLSGLSFEASVALARKHALGFYQLDDDALEAAIEASWDAIIKH | not soluble
14 | AHHHHHHASAKWVCKICGYIYDEDAGDPDNGISPGTKFEELPDDWVCPICGAPKSEFEKLEDGSFLPYLSSPYPLYLINLMLMECPPDIYSFSTQNSNNQLKGLFMFKKKEYDRWMVEAKRTLASAYSDLREGYYEWASFKAQQAAELAVKAILRGLSFAPIGHSITKLLRELAENNIKGPKKILYFAMKLDRNYIALRYPDAYPEGPH | soluble
15 | AHHHHHHGSEKLEKTVDMNIQQMINLSVLELVKLGLKYGIFKAVSKKISYIDLLNQVDVPNKPLLKKLIDHLKLLGIIEETPTHLLLNSFSYEIRFPKEEHMYLLPDWIPSFEEIYRMVDFALITPNHPHVLMDFDKDADFWDLRLSSTFHEAYRILIAKLGEIGEGSRVLDIGCGSASPAYFGKLVGEEGEYVGVDYSPALLEIAKNRTEGLPVKLKEMDASLIKPKNKYDVAIMSFVLEYIENRRSALRNALDSLESGGKLIIVDAFKDEFRNVEALEFFEGLNSAFREYPSKKYIKEVILDEGFEVKFGDYGKAILLIEKL | soluble
16 | AHHHHHHGSKIKRKIYWTKEFDSSHLLDLPYESKCKRIHGHTYRIEIEIYGDINEQGMIFDFNHLSDLIKELDHKIIVSKNWIEEREEFIVVKKNQKTLEIPRSEVVVIDKPNVTAEYLAEWFVEKILEKADKNIYEIKVRVWEDPRSYAEVTLELQGS | soluble
17 | AHHHHHHGSKKFRFFVSGMPGVGKTTLAKRIADEIKREGFKVGGIITQEIRSGARRSGFRVIALDTGEIGRLAYVGQGYPRLGRYVIDVESFEKVAIPAISRALREGDLIVIDEIGPMEFKSNEFLKALGLVLRSEKPLLATVHRRFVERYRPLGEYYWLTPENREAVFSEILVKIKELLRENENAGNKAQD | not soluble
18 | AHHHHHHGSKNLYLPITIDHIARVEGKGGVEIIIGDDGVKEVKLNIIEGPRFFEAITIGKKLEEALAIYPRICSFCSAAHKLTALEAAEKAVGFVPREEIQALREVLYIGDMIESHALHLYLLVLPDYRGYSSPLKMVNEYKREIEIALKLKNLGTWMMDILGSRAIHQENAVLGGFGKLPEKSVLEKMKAELREALPLAEYTFELFAKLEQYSEVEGPITHLAVKPRGDAYGIYGDYIKASDGEEFPSEKYRDYIKEFVVEHSFAKHSHYKGRPFMVGAISRVINNADLLYGKAKELYEANKDLLKGTNPFANNLAQALEIVYFIERAIDLLDEALAKWPIKPRDEVEIKDGFGVSTTEAPRGILVYALKVENGRVSYADIITPTAFNLAMMEEHVRMMAEKHYNDDPERLKILAEMVVRAYDPCISCSVHVVRL | soluble
19 | AHHHHHHGSLCEEKLEVFENGFKDDKHNIEIHVYGGDGRKVLLALIYELYSPEYGSEYVYPFECAKEFWGIYLDSSEVKGEEAELKPLKFISESVKSKIEKELEDIKAPIEVELEKSTIYKVKDGYIVLGKNFLLDHKGRLFVFNKPQVGEIILKYIWKW | soluble
20 | AHHHHHHGSLSERMLKALNDQLNRELYSAYLYFAMAAYFEDLGLEGFANWMKAQAEEEIGHALRFYNYIYDRNGRVELDEIPKPPKEWESPLKAFEAAYEHEKFISKSIYELAALAEEEKDYSTRAFLEWFINEQVEEEASVKKILDKLKFAKDSPQILFMLDKELSARAPKLPGLLMQGGE | not soluble
21 | AHHHHHHGSVERKKWSENFSEWFNEVIEEAGILDKRYPVKGMNVWLPYGLKIMKNIEKFIHEEMERTDHQEVLFPALIPETEFQKEAEHIAGFEGEVFWVTHAGHEPLDVRLVLRPTSETAMYSMFALWIRSHADLPFKVYQIVNVYRYETKHTRPLIRVREISRFFEAHTAHADFEDAERQIKEDLEIFDNLMKKLAIAYVISKRPEWDKFPGAYYSLGAEVVMPDGRTLQIGTMHNYKQNFAKAYNILYEKEDGTHDYVHQTTFGMSERLLAAVIAIHGDDRGMVLPPTIAPIQVVIVPIPKKGSEEEVYSYAREIEEELKLAGIRVHLDLRDKRPGWKFYDWELKGVPVRIEVGPRDAAEKTVVLARRDKLEKITVSREELVDKVRELFDDIMQYLYERAKEWLESHIKRVDTIEEAKELFNDRRGIVEIPWCGEEECGLKMEEELEAKMLGIPYPEESARVEGKKCPVCGREAKFIARFARTY | not soluble

From the DeepSol protein solubility set
